Test [1] deals with T1, sIL-6R (soluble IL-6 receptor; SBH Sciences) (human, UniProt P08887 20-365).
T1 construct: also called human IL-6R
T1 sequence: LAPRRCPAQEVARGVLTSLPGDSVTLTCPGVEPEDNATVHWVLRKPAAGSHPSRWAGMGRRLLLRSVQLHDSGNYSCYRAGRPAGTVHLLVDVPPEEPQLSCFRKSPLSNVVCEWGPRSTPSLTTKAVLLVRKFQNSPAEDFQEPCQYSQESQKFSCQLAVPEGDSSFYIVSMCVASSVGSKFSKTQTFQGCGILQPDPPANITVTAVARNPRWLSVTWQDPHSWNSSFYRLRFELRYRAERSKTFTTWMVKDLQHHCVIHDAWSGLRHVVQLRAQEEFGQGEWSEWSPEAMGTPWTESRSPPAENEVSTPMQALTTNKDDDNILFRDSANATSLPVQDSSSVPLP
The test can be described thus: SPR (BIAcore 3000), antibody on chip, sIL-6R analyte, pH 7.4; pH 7.4.

Test [2] has as its target T1, sIL-6R (soluble IL-6 receptor; SBH …). Briefly: SPR (BIAcore 3000), antibody on chip, sIL-6R analyte, 25 C. The method, then:
(§1) All SPR measurements were performed on a BIAcore 3000 instrument (GE Biosciences, Piscataway, N.J.). BIAcore Software-BIAcore 3000 Control Software V3.2 was used for the operation and control of the BIAcore 3000 instrument. BiaEvaluation Software V4.1 was used for the analysis of SPR data from the BIAcore 3000 instrument and data was plotted using Graph Pad Prism Software Version 5. […] The indicated antibodies were used as the ligand for the construction of the reference channel of the chip. […] Each sample was injected for 3 min at a flow rate of 30 μL/min to allow for binding to chip-bound antibody. Next, binding buffer without analyte was sent over the chip at the same flow rate to allow for dissociation of bound analyte. After 500s, remaining bound analyte was removed by injecting regeneration solution (1M Formic acid). Data was analyzed by using the Kinetics Wizard and the manual fitting programs that are both included with the BiaEvaluation Software V4.1.

The target is the same in test [3]. Described as above. The method, then: as §1
The source holds these as a separate data set.

The target is the same in test [4]. Described as above. The procedure, abridged:
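Antibody immobilized on chip, sIL-6R injected as analyte for 3 min at 30 μL/min, then buffer-only dissociation for 500 s. Surface regenerated with 1M formic acid between cycles. Kinetics obtained by fitting sensorgrams with Kinetics Wizard and manual fitting.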
The source holds these as a separate data set.

The target is the same in test [5]. Briefly: SPR (BIAcore 3000), antibody on chip, sIL-6R analyte, pH 7.4; pH 7.4. The method, then:
as §1
(§2) SPR measurements at pH 7.4 and pH 6.0 were performed in parallel and KD values calculated according to the protocol as detailed in Example 1. The pH dependence is calculated as the ratio between the KD value at pH 6.0 and the KD value at pH 7.4, which indicates the fold of affinity decrease from the pH7.4 to pH6.0. […]
The source holds these as a separate data set. A general note: SPR reads the build-up and loss of mass on a sensor chip optically.

Test [6] shares this target. Briefly: SPR (BIAcore 3000), antibody on chip, sIL-6R analyte, pH 7.4. The method, then:
as §1
(§3) SPR measurements at pH 7.4 and pH 6.0 were performed in parallel and KD values calculated according to the protocol as detailed in Example 1. The pH dependence is calculated as the ratio between the KD value at pH 6.0 and the KD value at pH 7.4, which indicates the fold of affinity decrease from the pH7.4 to pH6.0. If the pH dependence of a subject antibody described herein is over 1, it means that the antibody binds to IL-6R in such a pH-dependent manner that its binding to IL-6R at pH7.4 is higher than at pH6.0. If the pH dependence of a subject antibody described herein is lower than 1, it means that the antibody binds to IL-6R in such a pH-dependent manner that its binding to IL-6R at pH6.0 is higher than at pH7.4.

Test [7] has the same target. Briefly: SPR (BIAcore 3000), antibody on chip, sIL-6R analyte, pH 6.0. The method, then: as §1, §3
Test [8] has the same target. The test can be described thus: SPR (BIAcore 3000), antibody on chip, sIL-6R analyte, pH 7.4. The method, then:
as §1, §3
The source holds these as a separate data set.

Test [9] has the same target. Briefly: SPR (BIAcore 3000), antibody on chip, sIL-6R analyte, pH 6.0. The procedure: as §1, §3
This is another data set of the same source.

The target is the same in test [10]. The test can be described thus: SPR (BIAcore 3000), antibody on chip, sIL-6R analyte, 25 C. The procedure:
as §1
This is another data set of the same source.

For test [11], the target named is T2, IL-6 receptor on DS-1 cells (ATCC CRL 11102) (UniProt P08887 20-468, limits assumed).
T2 sequence (looked up): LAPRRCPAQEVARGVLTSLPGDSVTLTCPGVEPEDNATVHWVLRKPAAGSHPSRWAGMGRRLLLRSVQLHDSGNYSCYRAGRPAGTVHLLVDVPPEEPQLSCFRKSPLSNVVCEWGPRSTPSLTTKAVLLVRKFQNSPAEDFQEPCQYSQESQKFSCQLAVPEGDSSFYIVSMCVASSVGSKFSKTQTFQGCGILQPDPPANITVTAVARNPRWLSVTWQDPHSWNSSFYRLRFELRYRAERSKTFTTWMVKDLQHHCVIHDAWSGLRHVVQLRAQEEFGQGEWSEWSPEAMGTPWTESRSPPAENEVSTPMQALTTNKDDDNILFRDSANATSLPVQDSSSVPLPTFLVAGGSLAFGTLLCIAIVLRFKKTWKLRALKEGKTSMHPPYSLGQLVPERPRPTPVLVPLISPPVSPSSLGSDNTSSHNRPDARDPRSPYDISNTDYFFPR
Briefly: cell-based or functional assay.

For test [12], the target named is T1, sIL-6R (soluble IL-6 receptor; SBH …). The test can be described thus: SPR; ratio of KD at pH 6.0 to KD at pH 7.4; averaged between the two batches. The method, then: as §1, §2
For test [13] the target is unchanged. The test can be described thus: SPR (BIAcore 3000), antibody on chip, sIL-6R analyte, 25 C. The procedure:
as §1
This is another data set of the same source.

For test [14] the target is unchanged. The test can be described thus: SPR; ratio of KD at pH 6.0 to KD at pH 7.4. The method, then: as §1, §3

Positions count from the first letter of the chain named. Read-outs that look alike come from different tables or passages of the source.

B1: Tocilizumab (antibody, human IgG1, kappa, V domains shown)
VH: QVQLQESGPGLVRPSQTLSLTCTVSGYSITSDHAWSWVRQPPGRGLEWIGYISYSGITTYNPSLKSRVTMLRDTSKNQFSLRLSSVTAADTAVYYCARSLARTTAMDYWGQGSLVTVSS
VL: DIQMTQSPSSLSASVGDRVTITCRASQDISSYLNWYQQKPGKAPKLLIYYTSRLHSGVPSRFSGSGSGTDFTFTISSLQPEDIATYYCQQGNTLPYTFGQGTKVEIKR
notes: also called 25; 25(control)
Turning to B1, the Kd in test [1] stood at 3.16 nM; in [2], 2.85 nM; in test [3], 2.8 nM; in test [4], 3.16 nM; in [6], 2.85 nM; in test [7] it was 2 nM. The Kd turned out to be 1.79 nM in [9], 1.34 nM in test [10] and 1.71 nM in [13]. The “Relative Affinity” value in [2], in test [3], in test [4], in test [10] and in test [13] was 1 fold vs 25 (Tocilizumab) throughout. Further, the dissociation rate constant (koff) in test [2] is 0.000349 s⁻¹; in test [3] it was 0.00035 s⁻¹; in test [4] it was 0.000341 s⁻¹; in test [6] it was 0.000349 s⁻¹; in test [7], 0.000564 s⁻¹; in [8], 0.000341 s⁻¹. Moreover, the results for the koff in [9], in test [10] and in [13] were 0.000566 s⁻¹, 0.000252 s⁻¹ and 0.000353 s⁻¹, respectively. The kon turned out to be 122000 M⁻¹ s⁻¹ in test [2]; 125000 M⁻¹ s⁻¹ in [3]; 108000 M⁻¹ s⁻¹ in [4]; 122000 M⁻¹ s⁻¹ in test [5]; 283000 M⁻¹ s⁻¹ in [7]; 108000 M⁻¹ s⁻¹ in [8]. Also, the association rate constant (kon) in [9] was found to be 316000 M⁻¹ s⁻¹; in [10] it was 188000 M⁻¹ s⁻¹; in [13], 207000 M⁻¹ s⁻¹. Besides, in test [11], the “IC50 (µg/ml), inhibition of DS-1 cell proliferation, MTS assay, IL6 2 ng/mL” value (“IC50 (µg/ml), inhibition” below) came to 0.33 µg/mL. The “pH dependence (Fold of affinity decrease)” value in [12] came to 0.48 fold.

B2: 206# (antibody, human IgG1, kappa, V domains shown)
VH: B1 VH with Y51F, I57M, T103I
VL: B1 VL with Q89G, T93R
notes: also called Sample # 206
On to B2, for which the dissociation constant (Kd) was 0.00075 nM in test [2], 0.000587 nM in test [3], 0.00075 nM in [6] and 0.0213 nM in test [7]. The entries for the “Relative Affinity” value in test [2] and in test [3] were 3800 fold vs 25 (Tocilizumab) and 4770 fold vs 25 (Tocilizumab), respectively. Further, the koff in test [2] amounted to 1.41e-07 s⁻¹; in test [3], 1.35e-07 s⁻¹; in test [6] it was 1.41e-07 s⁻¹; in [7], 8.78e-06 s⁻¹. Besides, the kon amounted to 189000 M⁻¹ s⁻¹ in test [2], 230000 M⁻¹ s⁻¹ in test [3], 189000 M⁻¹ s⁻¹ in test [6] and 412000 M⁻¹ s⁻¹ in test [7]. In test [14], the “pH dependence (Fold of affinity decrease)” value amounted to 28.4 fold. The “IC50 (µg/ml), inhibition” value in [11] is 0.0339 µg/mL.

B3: 202# (antibody, human IgG1, kappa, V domains shown)
VH: B1 VH with S99V, T103I
VL: B1 VL with Q89G, T93R
Turning to B3, the Kd worked out at 0.0288 nM in [2], 0.0236 nM in [3], 0.0288 nM in test [6] and 0.0214 nM in test [7]. The “Relative Affinity” value in test [2] is 99 fold vs 25 (Tocilizumab); in [3] it was 119 fold vs 25 (Tocilizumab). Further, the koff in [2] came to 2.46e-06 s⁻¹; in [3] it was 3.17e-06 s⁻¹; in test [6], 2.46e-06 s⁻¹; in test [7], 6.1e-06 s⁻¹. Also, the kon was found to be 85300 M⁻¹ s⁻¹ in test [2], 134000 M⁻¹ s⁻¹ in [3], 85300 M⁻¹ s⁻¹ in test [6] and 284000 M⁻¹ s⁻¹ in test [7]. Besides, the “pH dependence (Fold of affinity decrease)” value in [14] is 0.74 fold. Further, the “IC50 (µg/ml), inhibition” value in test [11] worked out at 0.0686 µg/mL.

A word on the Kd: it is the concentration at which binding is half-saturated. In general, koff refers to the rate constant with which the complex falls apart. A low value points to a long-lived complex. As usually defined, the kon is the second-order rate constant of association. Higher therefore signals faster complex formation.

Source of the values: patent US20190315854A1 (BEIJING VDJBIO, published 2019).
